Laboratory results from patent publication US20070202043A1 (ARIUS RESEARCH, published 2007).

What was measured:
[1] = molecular target: T1, human TROP-2 on the surface of human cell lines (the AR52A301.5 antigen) (human, UniProt P09758 27-323); test: flow cytometry, 20 micrograms/mL antibody, OV2008 ovarian cancer cells
T1 construct: whole, on cells; The cell lines are not transfected; also called IDAC 141205-03 antigen; TROP-2 antigenic moiety
T1 sequence (looked up): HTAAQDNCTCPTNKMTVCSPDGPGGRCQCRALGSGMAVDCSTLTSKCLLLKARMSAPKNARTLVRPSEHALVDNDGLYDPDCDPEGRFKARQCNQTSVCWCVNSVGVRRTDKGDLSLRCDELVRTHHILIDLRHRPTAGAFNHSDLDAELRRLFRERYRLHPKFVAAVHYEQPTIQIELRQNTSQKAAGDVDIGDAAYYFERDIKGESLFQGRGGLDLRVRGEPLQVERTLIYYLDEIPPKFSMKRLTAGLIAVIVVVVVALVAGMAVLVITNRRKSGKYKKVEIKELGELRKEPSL
Method: (§1) All cell lines, except for the majority of ovarian cancer cell lines, were obtained from the American Type Tissue Collection (ATCC, Manassas, Va.).
(§2) Cells were prepared for FACS by initially washing the cell monolayer with DPBS (without Ca⁺⁺ and Mg⁺⁺). Cell dissociation buffer (INVITROGEN, Burlington, ON) was then used to dislodge the cells from their cell culture plates at 37° C. After centrifugation and collection, the cells were resuspended in DPBS containing MgCl₂, CaCl₂ and 2 percent fetal bovine serum at 4° C. […] Flow cytometric acquisition of the cells was assessed by running samples on a FACSarray™ using the FACSarray™ System Software (BD Biosciences, Oakville, ON). The forward (FSC) and side scatter (SSC) of the cells were set by adjusting the voltage and amplitude gains on the FSC and SSC detectors.

[2] = molecular target: T1, human TROP-2 on the surface of human …; test: cell-based or functional assay
[3] = molecular target: T1, human TROP-2 on the surface of human …; test: flow cytometry, 20 micrograms/mL antibody, PC-3 prostate cancer cells
Method: as §1, §2

[4] = molecular target: T1, human TROP-2 on the surface of human …; test: flow cytometry, 20 micrograms/mL antibody, BxPC-3 pancreatic cancer cells
Method: as §2

[5] = molecular target: T1, human TROP-2 on the surface of human …; test: flow cytometry, 20 micrograms/mL antibody, FaDu head and neck cancer cells
Method: as §1, §2

[6] = molecular target: T1, human TROP-2 on the surface of human …; test: flow cytometry, 20 micrograms/mL antibody, MCF-7 breast cancer cells
Method: as §1, §2

[7] = molecular target: T1, human TROP-2 on the surface of human …; test: flow cytometry, 20 micrograms/mL antibody, C-13 ovarian cancer cells
Method: as §2

[8] = molecular target: T1, human TROP-2 on the surface of human …; test: flow cytometry, 20 micrograms/mL antibody, NCI-H520 lung cancer cells (weaker binding)
Method: as §1, §2

[9] = molecular target: T1, human TROP-2 on the surface of human …; test: flow cytometry, 20 micrograms/mL antibody, Colo-205 colon cancer cells
Method: as §2

[10] = molecular target: T1, human TROP-2 on the surface of human …; test: flow cytometry, 20 micrograms/mL antibody, DU-145 prostate cancer cells
Method: as §2

[11] = molecular target: T1, human TROP-2 on the surface of human …; test: flow cytometry, 20 micrograms/mL antibody, Hey ovarian cancer cells
Method: as §2

[12] = molecular target: T1, human TROP-2 on the surface of human …; test: flow cytometry, 20 micrograms/mL antibody, OCC-1 ovarian cancer cells
Method: as §1, §2

[13] = molecular target: T1, human TROP-2 on the surface of human …; test: flow cytometry, 20 micrograms/mL antibody, OVCAR-3 ovarian cancer cells (printed twice in the paragraph, once as OVAR-3)
Method: as §1, §2

[14] = molecular target: T1, human TROP-2 on the surface of human …; test: flow cytometry, 20 micrograms/mL antibody, MDA-MB-468 breast cancer cells
Method: as §2

[15] = molecular target: T1, human TROP-2 on the surface of human …; test: flow cytometry, 20 micrograms/mL antibody, T.Tn esophageal cancer cells
Method: as §2

[16] = molecular target: T1, human TROP-2 on the surface of human …; test: flow cytometry, 20 micrograms/mL antibody, OVCA-429 ovarian cancer cells
Method: as §1, §2

[17] = molecular target: T1, human TROP-2 on the surface of human …; test: flow cytometry, 20 micrograms/mL antibody, DLD-1 colon cancer cells
Method: as §2

[18] = molecular target: T1, human TROP-2 on the surface of human …; test: flow cytometry, 20 micrograms/mL antibody, Hs888.Lu non-cancer lung cells (weaker binding)
Method: as §2

[19] = molecular target: T1, human TROP-2 on the surface of human …; test: flow cytometry, 20 micrograms/mL antibody, PL45 pancreatic cancer cells
Method: as §1, §2

[20] = molecular target: T1, human TROP-2 on the surface of human …; test: flow cytometry, 20 micrograms/mL antibody, HT-29 colon cancer cells
Method: as §2

B1: AR52A301.5 monoclonal antibody (hybridoma IDAC 141205-03) (antibody, mouse IgG1, V domains shown)
VH: EVQLQQSGPELVKPGASVKISCKASGYTFTDYNMHWVKQSHGKSLEWIGYIYPYNGGTGYNQRFKNKATLTVDISSSTAYMELRSLTSEDSAVYYCAREEDYYGFDYWGQGTTLTVSS
VL: DVVMTQTPLSLPVSLGQDASISCRSSQSLVHSYGNTYLHWYLQKPGQSPKLLIYKVSNRFSGVPDRFSGSGSGTDFTLKISRVEAEDMGVYFCSQSTHVYTFGGGTKLEIK
notes: Murine IgG1, kappa from the hybridoma; also called IDAC 141205-03 antibody
- mean fluorescence intensity fold increase above isotype control [1]: 32.7 fold
- cytotoxicity on OVCAR-3 cells relative to the positive control cycloheximide [2]: 53 percent
- mean fluorescence intensity fold increase above isotype control [3]: 5 fold
- mean fluorescence intensity fold increase above isotype control [4]: 29.4 fold
- mean fluorescence intensity fold increase above isotype control [5]: 59.8 fold
- mean fluorescence intensity fold increase above isotype control [6]: 16 fold
- mean fluorescence intensity fold increase above isotype control [7]: 38.7 fold
- mean fluorescence intensity fold increase above isotype control [8]: 2.1 fold
- mean fluorescence intensity fold increase above isotype control [9]: 38.6 fold
- mean fluorescence intensity fold increase above isotype control [10]: 3.9 fold
- mean fluorescence intensity fold increase above isotype control [11]: 5.9 fold
- mean fluorescence intensity fold increase above isotype control [12]: 17.8 fold
- mean fluorescence intensity fold increase above isotype control [13]: 22.1 fold
- mean fluorescence intensity fold increase above isotype control [14]: 22.7 fold
- mean fluorescence intensity fold increase above isotype control [15]: 18.6 fold
- mean fluorescence intensity fold increase above isotype control [16]: 3.4 fold
- mean fluorescence intensity fold increase above isotype control [17]: 82.8 fold
- mean fluorescence intensity fold increase above isotype control [18]: 2.6 fold
- mean fluorescence intensity fold increase above isotype control [19]: 12.9 fold
- mean fluorescence intensity fold increase above isotype control [20]: 6.7 fold
